The values below come from article PMC4497498, “Kv1.3 contains an alternative C-terminal ER exit motif and is recruited into COPII vesicles by Sec24a” (BMC Biochemistry, 2015).

Usually stoichiometry N stands for a count of units in the complex or per binding partner.

Series [1] deals with the molecule itself. The experiment in a line: native gel or EMSA + other: negative stain electron microscopy; purified Kv1.3 in Fos-12 or amphipol A8-35 on a 4-16 % native gel; negative stain EM with 2D class averages of Kv1.3 in A8-35; tetramer.
Series [2] concerns the target T1, Sec24a^341 (Sec24a lacking the first 341 residues) (human, UniProt O95486 342-1093).
T1 construct: Sec24a, COPII cargo adaptor subunit, human; ~80 kDa; source: Hi5 insect cells (baculovirus), purified (HisPur Cobalt resin, Superose 6)
T1 sequence (looked up): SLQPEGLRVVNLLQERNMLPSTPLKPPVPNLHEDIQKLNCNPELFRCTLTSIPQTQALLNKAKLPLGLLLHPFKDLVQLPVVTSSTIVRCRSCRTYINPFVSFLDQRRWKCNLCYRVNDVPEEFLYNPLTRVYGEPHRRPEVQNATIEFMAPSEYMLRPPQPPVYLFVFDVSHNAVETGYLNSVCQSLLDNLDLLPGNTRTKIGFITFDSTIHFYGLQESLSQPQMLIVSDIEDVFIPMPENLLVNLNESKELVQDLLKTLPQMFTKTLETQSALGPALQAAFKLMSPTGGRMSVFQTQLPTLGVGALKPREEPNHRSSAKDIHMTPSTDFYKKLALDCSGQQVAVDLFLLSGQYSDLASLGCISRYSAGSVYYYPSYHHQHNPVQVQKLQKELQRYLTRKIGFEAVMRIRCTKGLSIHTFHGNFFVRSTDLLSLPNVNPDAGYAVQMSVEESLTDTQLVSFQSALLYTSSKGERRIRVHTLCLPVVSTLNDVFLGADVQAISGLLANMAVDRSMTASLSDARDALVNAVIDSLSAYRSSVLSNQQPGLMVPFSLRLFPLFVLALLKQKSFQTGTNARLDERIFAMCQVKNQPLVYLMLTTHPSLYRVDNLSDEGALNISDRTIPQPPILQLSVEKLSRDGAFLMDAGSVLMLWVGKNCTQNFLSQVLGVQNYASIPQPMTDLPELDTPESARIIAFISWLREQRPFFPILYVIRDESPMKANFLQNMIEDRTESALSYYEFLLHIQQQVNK
Description: membrane flotation assay; 15 ug Sec24a^341 incubated with 15 ug Kv1.3 proteoliposomes (DOPC:DOPS 95:5) in 25 mM Tris, 150 mM NaCl, 160 mM KOAc, 1 mM MgOAc, pH 7.5, 30 % sucrose, 32 °C for 1 h; overlaid with 25 % and 0 % sucrose, 200,000 g for 1 h at 4 °C; fractions read by Western blot. The conditions noted are these: both partners purified. A general note: In western blotting, separated proteins are transferred to a membrane and probed.

B1: Kv1.3 (mouse Shaker-type voltage-gated potassium channel subfamily member 3), recombinant, His6-tagged (natural protein, UniProt P16390 1-528, looked up)
chain: MTVVPGDHLLEPEAAGGGGGDPPQGGCGSGGGGGGCDRYEPLPPALPAAGEQDCCGERVVINISGLRFETQLKTLCQFPETLLGDPKRRMRYFDPLRNEYFFDRNRPSFDAILYYYQSGGRIRRPVNVPIDIFSEEIRFYQLGEEAMEKFREDEGFLREEERPLPRRDFQRQVWLLFEYPESSGPARGIAIVSVLVILISIVIFCLETLPEFRDEKDYPASPSQDVFEAANNSTSGAPSGASSFSDPFFVVETLCIIWFSFELLVRFFACPSKATFSRNIMNLIDIVAIIPYFITLGTELAERQGNGQQAMSLAILRVIRLVRVFRIFKLSRHSKGLQILGQTLKASMRELGLLIFFLFIGVILFSSAVYFAEADDPSSGFNSIPDAFWWAVVTMTTVGYGDMHPVTIGGKIVGSLCAIAGVLTIALPVPVIVSNFNYFYHRETEGEEQAQYMHVGSCQHLSSSAEELRKARSNSTLSKSEYMVIEEGGMNHSAFPQTPFKTGNSTATCTTNNNPNSCVNIKKIFTDV
modifications: phosphorylated, sites not stated (non-dephosphorylated tetramers were used for reconstitution)
notes: Kv1.3, mouse; wild type cDNA cut from Kv1.3-pcDNA3 at the Nco and Kpn sites and ligated into pFastbac HT; Integral membrane protein; a monomer runs at ~65 kDa; No TEV cleavage of the tag is described; also called Kv1.3 tetramers; Kv1.3 proteoliposomes; source: Hi5 insect cells (baculovirus), purified (cobalt Chelating Sepharose, Superose 6) in Fos-12; reconstituted into DOPC:DOPS proteoliposomes, …
Consider B1, for which the “stoichiometry N” value in series [1] amounted to 4. In series [2], the binding result is listed as “binds”.
